Results taken from publication PMC9241269.

Molecular target: SYT11 (UniProt Q9BT88)
Experiment: co-IP with anti-Myc, blot for GFP-SYT11
Conditions: reference: Myc-JNK1 wild type

Row | Substance | binding against the reference (sites Y185) | binding against the reference (sites T183)
1 | JNK1 (from UniProt P45983) Myc-JNK1 Y185F | lost | –
2 | JNK1 (from UniProt P45983) Myc-JNK1 T183A | – | lost
